According to patent US20250041437A1 (SUN PHARMA ADVANCED RESEARCH, published 2025):
Substitutions are numbered along the chain they refer to.

B1: humanized IgG1 anti-MUC1-SEA mAb (HM5 LM4) (antibody, V domains shown)
VH: EIQLVQSGAEVKKPGSSVKVSCKVTGHSITRGSSWHWMRQAPGQGLEWIGYIHYGGGTSYNPSLKSRITITRDTSTNTFYMELSSLRSEDTAFYFCARYSYDITYRWFFDVWGQGTLVTVSS
VL: DIQMTQSPSTLSASVGDRVTITCRASQNIGTSIHWYQQKPGKAPKLLIKYASESISGVPSRFSGSGSGTEFTLTISSLQPDDFATYYCQQNNNWPLTFGQGTKVEIKR
notes: also called Humanized anti-MUC1 SEA IgG1; humanized IgG anti-MUC1-SEA mAb
B2: HM2 LM2 variant of humanized anti-MUC1 antibody SP66 (antibody, V domains shown)
VH: B1 VH with F79A
VL: DIQMTQSPSTLSASVGDRVTITCRASQNIGTSIHWYQQKPGKAPKLLIKRASESISGVPSRFSGSGSGTEFTLTISSLQPDDFATYYCQQNNNWPLTFGQGTKVEVK
notes: Humanized IgG expressed in CHO cells; only variable domains tied to the variant
B3: HM5 LM2 variant of humanized anti-MUC1 antibody SP66 (antibody, V domains shown)
VH: B1 VH
VL: B2 VL
notes: as for B2
B4: HM4 LM3 variant of humanized anti-MUC1 antibody SP66 (antibody, V domains shown)
VH: B1 VH with I68A, I70L
VL: B2 VL with R50Y
notes: as for B2
B5: HM2 LM1 variant of humanized anti-MUC1 antibody SP66 (antibody, V domains shown)
VH: B1 VH with F79A
VL: B2 VL with Y36F
notes: as for B2
B6: HM4 LM2 variant of humanized anti-MUC1 antibody SP66 (antibody, V domains shown)
VH: B1 VH with I68A, I70L
VL: B2 VL
notes: as for B2
B7: HM5 LM3 variant of humanized anti-MUC1 antibody SP66 (antibody, V domains shown)
VH: B1 VH
VL: B2 VL with R50Y
notes: as for B2
B8: HM3 LM2 variant of humanized anti-MUC1 antibody SP66 (antibody, V domains shown)
VH: B1 VH with I68A, I70L, F79A
VL: B2 VL
notes: as for B2

Each binder was assayed against T1, human MUC1 on cells (DA3-TM transfectants and human cancer cell lines SKOV3, COLO357, HT29 and others) (human, UniProt P15941 24-1255) (assay: flow cytometry on SKOV-3 cells, geometric mean against concentration).
T1 construct: also called MUC1-SEA; surface MUC1
T1 sequence (P15941 24-1255 limits assumed): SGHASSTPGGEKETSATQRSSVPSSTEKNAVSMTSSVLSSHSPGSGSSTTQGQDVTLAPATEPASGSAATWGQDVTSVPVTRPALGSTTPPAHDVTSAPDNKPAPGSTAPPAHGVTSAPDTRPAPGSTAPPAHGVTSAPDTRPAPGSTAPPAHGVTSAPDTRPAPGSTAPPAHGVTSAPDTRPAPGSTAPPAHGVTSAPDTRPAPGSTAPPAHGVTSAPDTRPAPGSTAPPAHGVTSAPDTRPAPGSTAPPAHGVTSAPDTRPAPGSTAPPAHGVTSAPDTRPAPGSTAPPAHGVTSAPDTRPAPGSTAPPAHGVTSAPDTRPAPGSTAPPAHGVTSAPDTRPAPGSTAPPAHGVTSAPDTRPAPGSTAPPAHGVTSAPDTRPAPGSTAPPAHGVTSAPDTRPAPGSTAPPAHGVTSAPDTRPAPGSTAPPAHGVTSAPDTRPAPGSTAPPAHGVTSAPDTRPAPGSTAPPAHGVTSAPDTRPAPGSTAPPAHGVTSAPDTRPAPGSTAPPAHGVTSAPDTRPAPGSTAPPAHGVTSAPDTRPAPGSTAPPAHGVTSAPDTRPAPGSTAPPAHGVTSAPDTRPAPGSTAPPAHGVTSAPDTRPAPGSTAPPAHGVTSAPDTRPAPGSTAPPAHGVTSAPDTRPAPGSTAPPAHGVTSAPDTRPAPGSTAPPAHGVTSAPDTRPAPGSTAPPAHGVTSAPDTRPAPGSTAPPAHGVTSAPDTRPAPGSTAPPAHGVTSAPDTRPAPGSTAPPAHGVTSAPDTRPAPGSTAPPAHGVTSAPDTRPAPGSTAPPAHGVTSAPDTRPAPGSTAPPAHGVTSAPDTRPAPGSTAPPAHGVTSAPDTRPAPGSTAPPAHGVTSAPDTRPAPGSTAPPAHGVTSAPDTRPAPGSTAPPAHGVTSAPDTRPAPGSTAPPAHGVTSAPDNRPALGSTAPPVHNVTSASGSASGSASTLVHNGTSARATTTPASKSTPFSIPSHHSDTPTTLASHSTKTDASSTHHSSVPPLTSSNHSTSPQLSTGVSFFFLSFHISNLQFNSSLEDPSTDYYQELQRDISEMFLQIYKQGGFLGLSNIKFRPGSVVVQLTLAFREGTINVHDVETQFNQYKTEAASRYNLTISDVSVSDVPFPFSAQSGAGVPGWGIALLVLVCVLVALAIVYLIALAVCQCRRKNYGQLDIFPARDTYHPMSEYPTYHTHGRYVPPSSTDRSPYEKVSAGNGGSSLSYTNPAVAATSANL

With B1 the “EC50 (read off the curve)” value was roughly 3 nM.

These binders were tested against T1, human MUC1 on cells (DA3-TM …) (assay: flow cytometry on DA3-TM cells; table row 5 of 5, about 0.4 nM by the matching point in FIG. 3A).

In order of rising “Geometric Mean : FL6-A” value:
1. B5  727
2. B2  2860
3. B4  5320
4. B3  7990

The binders below were run against T1, human MUC1 on cells (DA3-TM …) (assay: flow cytometry on DA3-TM cells; table row 2 of 5, about 11 nM by the matching point in FIG. 3A).

In order of rising “Geometric Mean : FL6-A” value:
1. B5  10000
2. B2  15000
3. B4  22300
4. B3  23700

The binders below were run against T1, human MUC1 on cells (DA3-TM …) (assay: flow cytometry on DA3-TM cells; table row 4 of 5, about 1.2 nM by the matching point in FIG. 3A).

In order of rising “Geometric Mean : FL6-A” value:
1. B5  1870
2. B2  6400
3. B4  9700
4. B3  14600

The binders below were run against T1, human MUC1 on cells (DA3-TM …) (assay: flow cytometry, dose-dependent binding on MUC1 positive DA3-TM cells).

In order of rising Kd:
1. B7  0.9 nM
2. B1  1 nM
3. B3  1.4 nM
4. B4  1.5 nM
5. B6  2.1 nM
6. B2  3.2 nM
7. B8  3.7 nM
8. B5  14.5 nM

What follows are binders tested against T1, human MUC1 on cells (DA3-TM …) (assay: flow cytometry on DA3-TM cells; table row 3 of 5, about 3.7 nM by the matching point in FIG. 3A).

In order of falling “Geometric Mean : FL6-A” value:
1. B3  21300
2. B4  17600
3. B2  11800
4. B5  4900
